These results are taken from article PMC3394726 (PLoS ONE, 2012).

The experiment deals with T1, human complement C1q (human, UniProt P02745;P02746;P02747).
T1 construct: source: purified from human plasma; endogenous, normal human serum (NHS); copies: + +
The experiment can be described thus: ELISA; SMSB3 or SMSB4 coated at 10 µg/ml; serial dilutions of normal human serum (0-100%) for 10, 20, 40 or 60 min at 37°C; bound complement factors detected with specific antibodies. To be noted: one partner purified. (In general: ELISA stands for enzyme-linked immunosorbent assay.)

T1 sequence (P02745 23-245, chain 1 of 3): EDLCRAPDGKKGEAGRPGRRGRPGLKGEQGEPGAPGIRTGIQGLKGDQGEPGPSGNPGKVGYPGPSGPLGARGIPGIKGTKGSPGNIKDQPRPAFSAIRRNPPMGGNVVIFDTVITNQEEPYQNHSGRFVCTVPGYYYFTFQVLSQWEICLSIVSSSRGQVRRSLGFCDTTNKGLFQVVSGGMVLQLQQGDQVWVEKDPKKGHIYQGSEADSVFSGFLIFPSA
T1 sequence (P02746 28-253, chain 2 of 3): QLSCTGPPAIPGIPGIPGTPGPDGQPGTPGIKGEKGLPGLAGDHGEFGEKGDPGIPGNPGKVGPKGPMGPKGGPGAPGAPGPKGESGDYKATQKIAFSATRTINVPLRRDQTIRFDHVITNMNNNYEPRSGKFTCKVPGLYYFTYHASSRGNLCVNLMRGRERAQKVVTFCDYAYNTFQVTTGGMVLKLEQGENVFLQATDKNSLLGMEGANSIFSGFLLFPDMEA
T1 sequence (P02747 29-245, chain 3 of 3): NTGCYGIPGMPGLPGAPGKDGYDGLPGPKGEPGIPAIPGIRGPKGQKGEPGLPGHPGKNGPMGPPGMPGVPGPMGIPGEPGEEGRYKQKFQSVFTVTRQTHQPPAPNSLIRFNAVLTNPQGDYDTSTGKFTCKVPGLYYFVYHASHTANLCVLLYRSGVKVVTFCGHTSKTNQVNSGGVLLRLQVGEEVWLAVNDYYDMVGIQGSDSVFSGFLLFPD

B1: scabies mite serpin SMSB4, wild type (natural protein)
chain: KPQHHSQSHQQPVLASDPNEDPLKALNLLQQQKQFTEHFFQQNNEKLNLLGGQEIIKCFDVNFTSNVLNNIDHISKIMIDGSRHFGLRLFQILNLFEPKTSSPGLVYSPISVWSTLILTYLGSDGVTEQELSQKLKLNQLPKPLVALAYRSLKWWKDFNVLKLMQNHTDATQVCSANKLYINDHLLVKDCFRTIFGDEIEMKSFSSRPQESLSEINDWVRVQTQGHIPNLLGPESISSNTNIVMINAVYFKSFWAQQFDSSKTKKQRFYVSMNEELEADMMTMDSVSVMYGISEELRASAVEIPYSNPDYSFLIILPDITRSLDSMIRTLTWNKIQLLLQNMYDDEVKLMIPKFRSEQEFELAGPLFSLGIKKLFDPRYANLNSIFMNSNNSRVALDSVIHKSFISVDEEGTEAAAATAVIFARSGRPAFPTEFIADRPFLYIIRDVSSNQLLFIGTVRRPYASQAIVA
notes: also called SMB4; SMSB4/wt
For the molecule B1, the binding result is reported as “binds”.
